Experimental findings from FireProtDB (doi:10.1038/75151) are described below.

The chains are these.
B1: Cold shock protein CspB, P41016 (parent)
chain: MQRGKVKWFNNEKGYGFIEVEGGSDVFVHFTAIQGEGFKTLEEGQEVSFEIVQGNRGPQAANVVKL

The variants in the data set derive from B1. The settings on record: Bacillus caldolyticus, pH 7, Thermal, CD, Sodium cacodylate-HCl 0.1 M, reversible: yes, structure 1C9O, whole UniProt chain shown; for ddG of mutation (higher = less stable) / unfolding free energy: 70 °C.

In general, Tm refers to the temperature at which the thermal transition is half complete. With T31S, the “ddG of mutation (higher = less stable)” value is -0.17 kcal/mol; the unfolding free energy was 1.24 kcal/mol; the Tm was 77.8 °C; the “change of melting temperature, mutant - wild type (higher = more stable)” value (“change of melting temperature, mutant” for short) turned out to be 0.9 °C. Besides, the “unfolding enthalpy (van 't Hoff)” value turned out to be 59.8 kcal/mol. Besides, for the setting “NaCl 2 M”, the “ddG of mutation (higher = less stable)” value was -0.19 kcal/mol and the unfolding free energy was 2.39 kcal/mol.
With Q53E, the “ddG of mutation (higher = less stable)” value stood at 0.1 kcal/mol; the unfolding free energy worked out at 0.98 kcal/mol; the midpoint of thermal melting (Tm) came out at 76.1 °C; the “change of melting temperature, mutant” value is -0.8 °C. For the same variant, the “unfolding enthalpy (van 't Hoff)” value was determined as 58.8 kcal/mol. Moreover, under “NaCl 2 M”, the “ddG of mutation (higher = less stable)” value stood at 0 kcal/mol and the unfolding free energy was 2.2 kcal/mol.
R3E: the melting temperature (Tm) worked out at 59.1 °C; the “change of melting temperature, mutant” value was -17.8 °C; the “unfolding enthalpy (van 't Hoff)” value came out at 45.6 kcal/mol. For the setting “NaCl 2 M”, the “ddG of mutation (higher = less stable)” value is 1 kcal/mol and the unfolding free energy was 1.2 kcal/mol.
On to Y15F, for which the “ddG of mutation (higher = less stable)” value came out at 0.05 kcal/mol; the unfolding free energy came out at 1.03 kcal/mol; the Tm was found to be 76.7 °C; the “change of melting temperature, mutant” value is -0.2 °C. Also, the “unfolding enthalpy (van 't Hoff)” value stood at 56.6 kcal/mol. Moreover, for the setting “NaCl 2 M”, the “ddG of mutation (higher = less stable)” value was -0.07 kcal/mol and the unfolding free energy is 2.27 kcal/mol.
On to L66A, for which, for the setting “NaCl 2 M”, the “ddG of mutation (higher = less stable)” value came out at 0.07 kcal/mol and the unfolding free energy was 2.13 kcal/mol.
On the same counts, the results for L66E are 1.27 kcal/mol and 0.93 kcal/mol.
On to N11S, for which the “ddG of mutation (higher = less stable)” value was -0.33 kcal/mol; the unfolding free energy came out at 1.41 kcal/mol; the midpoint of thermal melting (Tm) was found to be 79.2 °C; the “change of melting temperature, mutant” value came out at 2.3 °C. For the same variant, the “unfolding enthalpy (van 't Hoff)” value stood at 58.8 kcal/mol. Also, where the note is “NaCl 2 M”, the “ddG of mutation (higher = less stable)” value is -0.22 kcal/mol and the unfolding free energy came to 2.41 kcal/mol.
S24D: the “ddG of mutation (higher = less stable)” value was -0.22 kcal/mol; the unfolding free energy is 1.29 kcal/mol; the Tm is 77.8 °C; the “change of melting temperature, mutant” value came to 0.9 °C. Moreover, the “unfolding enthalpy (van 't Hoff)” value stood at 61.7 kcal/mol. In addition, for the setting “NaCl 2 M”, the “ddG of mutation (higher = less stable)” value was -0.19 kcal/mol and the unfolding free energy worked out at 2.39 kcal/mol.
Q2L: the “ddG of mutation (higher = less stable)” value is -0.55 kcal/mol; the unfolding free energy amounted to 1.63 kcal/mol; the midpoint of thermal melting (Tm) turned out to be 80.9 °C; the “change of melting temperature, mutant” value is 4 °C. Further, the “unfolding enthalpy (van 't Hoff)” value came out at 57.8 kcal/mol. Also, for the setting “NaCl 2 M”, the “ddG of mutation (higher = less stable)” value was -0.29 kcal/mol and the unfolding free energy amounted to 2.49 kcal/mol.
Consider E46A, for which the “ddG of mutation (higher = less stable)” value came to 0.22 kcal/mol; the unfolding free energy worked out at 0.86 kcal/mol; the midpoint of thermal melting (Tm) is 75.4 °C; the “change of melting temperature, mutant” value is -1.5 °C. The “unfolding enthalpy (van 't Hoff)” value turned out to be 57.6 kcal/mol. Under “NaCl 2 M”, the “ddG of mutation (higher = less stable)” value turned out to be 0.12 kcal/mol and the unfolding free energy amounted to 2.08 kcal/mol.
With G23Q, the “ddG of mutation (higher = less stable)” value stood at 0.29 kcal/mol; the unfolding free energy is 0.79 kcal/mol; the Tm came to 74.7 °C; the “change of melting temperature, mutant” value is -2.2 °C. The “unfolding enthalpy (van 't Hoff)” value amounted to 59.5 kcal/mol. In addition, where the note is “NaCl 2 M”, the “ddG of mutation (higher = less stable)” value was 0.31 kcal/mol and the unfolding free energy was found to be 1.89 kcal/mol.
For V64T, the Tm was 75.1 °C; the “change of melting temperature, mutant” value is -1.8 °C; the “unfolding enthalpy (van 't Hoff)” value came to 58.3 kcal/mol. Besides, for the setting “NaCl 2 M”, the “ddG of mutation (higher = less stable)” value is 0.19 kcal/mol and the unfolding free energy is 2.01 kcal/mol.
For the variant R3E L66E, the Tm was 44.6 °C; the “change of melting temperature, mutant” value is -32.3 °C; the “unfolding enthalpy (van 't Hoff)” value stood at 36.8 kcal/mol.
